In one data set the test system is IRE1-NLD. Kind of data set: MST, COX-2 titrated to RED-labeled IRE1-NLD. In kind it is binding. The following applies: red labelled IRE1-NLD, Suppl. Fig. S9. As for the experimental part:
MST was carried out using a Monolith NT.115 instrument (NanoTemper). To evaluate COX-2 binding to IRE1-NLD, an increasing concentration of purified COX-2 protein (0–10 µM) was incubated with RED-labeled purified IRE1-NLD protein (NanoTemper; as per manufacturer’s protocol). The reverse was also performed, with RED-labeled purified COX-2 incubated with an increasing concentration of purified IRE1-NLD. Positive (cyclophilin A) and negative controls (carbonic anhydrase) were included. […] Positive (cyclophilin A) and negative controls (carbonic anhydrase) were included. […] Experiments were done in triplicate and data evaluation was performed using the Monolith software (NanoTemper).

Another data set relates to COX-2 peroxidase. The following applies: COX-2 H374Y mutant; cited from earlier work. The source says: Thus, we generated a cell line overexpressing His-tagged COX-2 (HEK293 COX-2 OE) as well as a cell line overexpressing the His-tagged COX-2 H374Y mutant (Fig. 6A), which has a 300-fold reduction in peroxidase activity.

B1: COX-2 H374Y: COX-2 H374Y mutant protein (protein)
chain: ANPCCSHPCQNRGVCMSVGFDQYKCDCTRTGFYGENCSTPEFLTRIKLFLKPTPNTVHYILTHFKGFWNVVNNIPFLRNAIMSYVLTSRSHLIDSPPTYNADYGYKSWEAFSNLSYYTRALPPVPDDCPTPLGVKGKKQLPDSNEIVEKLLLRRKFIPDPQGSNMMFAFFAQHFTHQFFKTDHKRGPAFTNGLGHGVDLNHIYGETLARQRKLRLFKDGKMKYQIIDGEMYPPTVKDTQAEMIYPPQVPEHLRFAVGQEVFGLVPGLMMYATIWLREHNRVCDVLKQEHPEWGDEQLFQTSRLILIGETIKIVIEDYVQHLSGYHFKLKFDPELLFNKQFQYQNRIAAEFNTLYHWYPLLPDTFQIHDQKYNYQQFIYNNSILLEHGITQFVESFTRQIAGRVAGGRNVPPAVQKVSQASIDQSRQMKYQSFNEYRKRFMLKPYESFEELTGEKEMSAELEALYGDIDAVELYPALLVEKPRPDAIFGETMVEVGAPFSLKGLMGNVICSPAYWKPSTFGGEVGFQIINTASIQSLICNNVKGCPFTSFSVPDPELIKTVTINASSSRSGLDDINPTVLLKERSTEL
modifications: left off: His6, end not stated, state not stated
notes: COX-2 H374Y mutant protein
B1: the “binding to IRE1-NLD (MST), wild-type and H374Y” value in the data set with IRE1-NLD is “bound to IRE1-NLD”. The “fold reduction in peroxidase activity” value in the data set with COX-2 peroxidase is 300 fold.

The values are drawn from PMC6232179 (Scientific Reports, 2018).
